# Laboratory results from paper PMC8647145, “Foxd3 controls heterochromatin‐mediated repression of repeat elements and 2‐cell state transcription”.
# B1: MERVL-int (dsDNA)
# DNA 1: CCATCTTTTGATAAACACCTCAGCCAACCATTCAA
# DNA 2: TTGAATGGTTGGCTGAGGTGTTTATCAAAAGATGG
# B2: MSR (dsDNA)
# DNA 1: CTGAAAATCATGGAAAATGAGAAACATCCACTTGA
# DNA 2: TCAAGTGGATGTTTCTCATTTTCCATGATTTTCAG
# B3: MERVL-LTR (dsDNA)
# DNA 1: CAGCTGTGTTCTAAGTGGTAAACAAATAATCTGCG
# DNA 2: CGCAGATTATTTGTTTACCACTTAGAACACAGCTG
# B4: MERVL-LTR_MUT (dsDNA)
# DNA 1: CAGCTGTGTTCTAAGTGGTACACGCCTAATCTGCG
# DNA 2: CGCAGATTAGGCGTGTACCACTTAGAACACAGCTG
# B5: Sox15 (dsDNA)
# DNA 1: CAGAGGCTACTCTGAAACAAATAAAGAGATATAAA
# DNA 2: TTTATATCTCTTTATTTGTTTCAGAGTAGCCTCTG
# B6: Hprt (dsDNA)
# DNA 1: AGGGCGGGCCGAGGGGCGGAGCCTGGCCGGCAGCG
# DNA 2: CGCTGCCGGCCAGGCTCCGCCCCTCGGCCCGCCCT
# B7: L1MdA (dsDNA)
# DNA 1: GTACATAGGGAAGCAGGCTACCCGGGCCTGATCTG
# DNA 2: CAGATCAGGCCCGGGTAGCCTGCTTCCCTATGTAC
# B8: MSR_MUT (dsDNA)
# DNA 1: CTGAAAATCATGGAAAATGCGTGACGGCGACTTGA
# DNA 2: TCAAGTCGCCGTCACGCATTTTCCATGATTTTCAG
# What was measured:
# GST-FOXD3 [1] = biological target: T1, GST-FOXD3 (mouse, UniProt Q61060 1-465); assay: EMSA; EMSA: 50 nM DNA, 20 mM Tris-HCl pH 8.0, 100 mM KCl, 3 mM MgCl2, 1 mM EDTA, 5% glycerol, 0.05% NP-40, 2 mM DTT, 50 ng/ml yeast tRNA, 2.5 ng/ml BSA, 4 C, 1 h; settings: protein: recombinant; tags: N-terminal GST (pGEX-6P1); label: 5'-Cy5; blunt
# T1 sequence: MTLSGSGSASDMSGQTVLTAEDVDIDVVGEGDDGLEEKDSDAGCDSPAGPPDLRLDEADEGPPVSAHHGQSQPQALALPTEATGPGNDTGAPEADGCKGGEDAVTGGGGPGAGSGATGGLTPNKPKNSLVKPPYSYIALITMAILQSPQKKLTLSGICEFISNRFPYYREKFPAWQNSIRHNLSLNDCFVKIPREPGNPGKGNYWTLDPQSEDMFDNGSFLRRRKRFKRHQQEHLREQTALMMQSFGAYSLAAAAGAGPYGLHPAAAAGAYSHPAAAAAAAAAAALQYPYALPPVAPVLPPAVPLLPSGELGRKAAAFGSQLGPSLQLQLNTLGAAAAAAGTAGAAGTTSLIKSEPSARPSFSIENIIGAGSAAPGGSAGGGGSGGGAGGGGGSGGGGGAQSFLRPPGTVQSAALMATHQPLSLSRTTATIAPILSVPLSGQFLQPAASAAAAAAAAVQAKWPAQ
# GST-FOXD3 [2] = biological target: T1, GST-FOXD3; assay: EMSA; up to 2.5 uM protein; EMSA: 50 nM DNA, 20 mM Tris-HCl pH 8.0, 100 mM KCl, 3 mM MgCl2, 1 mM EDTA, 5% glycerol, 0.05% NP-40, 2 mM DTT, 50 ng/ml yeast tRNA, 2.5 ng/ml BSA, 4 C, 1 h; settings: protein: recombinant; tags: N-terminal GST (pGEX-6P1); label: 5'-Cy5; blunt
Binder,binding result (GST-FOXD3 [1]),binding result (GST-FOXD3 [2])
B1,binds,–
B2,binds,–
B3,binds,–
B4,–,no binding
B5,binds,–
B6,–,no binding
B7,–,no binding
B8,–,no binding
